Laboratory results reported in patent US20210094999A1.

Assays:
[1] = biological target: insulin receptor-A on CHO-hIR cells (human) (UniProt P06213); experiment: cell-based or functional assay
[2] = biological target: solubilised human insulin receptor isoform A (IR-A) (human) (UniProt P06213); experiment: competition SPA on solubilised human IR-A against [125I-TyrA14]-human insulin; affinity relative to human insulin

Substance	% maxERK/% maxAKT [1]	Elisa hIR pY1158 max (% of human insulin) (% of human insulin) [1]	hIR binding IC50 (% of human insulin) (% of human insulin) [2]
N{Epsilon-B29}-[(4S)-4-carboxy-4-(15-carboxypentadecanoylamino)butanoyl]-[TyrB5,GlyB26],des-ThrB30-Insulin (ligand; Lys B29: N-epsilon acylated with C16 diacid-gGlu)	0.19	8	–
N{Epsilon-B28}-17-carboxyheptadecanoyl-[TyrB5,GlyB26,LysB28],des-(B29-B30)-Insulin (ligand; Lys B28: N-epsilon acylated with C18 diacid, no linker)	0.07	3	–
N{Epsilon-B29}-[(4S)-4-carboxy-4-(15-carboxypentadecanoylamino)butanoyl]-[TyrB5,AlaB26],des-ThrB30-Insulin (ligand; Lys B29: N-epsilon acylated with C16 diacid-gGlu)	0.3	13	–
N{Epsilon-B29}-[(4S)-4-carboxy-4-(15-carboxypentadecanoylamino)butanoyl]-[TyrB5],des-ThrB30-Insulin (ligand; Lys B29: N-epsilon acylated with C16 diacid-gGlu)	0.84	58	–
N{Epsilon-B29}-[(4S)-4-carboxy-4-(17-carboxyheptadecanoylamino)butanoyl]-[TyrB5,GlyB26],des-ThrB30-Insulin (ligand; Lys B29: N-epsilon acylated with C18 diacid-gGlu)	0.36	7	–
N{Epsilon-B26}-[2-[2-[2-[[2-[2-[2-[[(4S)-4-carboxy-4-(17-carboxyheptadecanoylamino)butanoyl]amino]ethoxy]ethoxy]acetyl]amino]ethoxy]ethoxy]acetyl]-[TyrB5,LysB26],des-(B27-B30)-Insulin (ligand; Lys B26: N-epsilon acylated with C18 diacid-gGlu-2xOEG)	0.41	24	–
N{Epsilon-B28}-17-carboxyheptadecanoyl-[PheB5,LysB28],des-(B29-B30)-Insulin (ligand; Lys B28: N-epsilon acylated with C18 diacid, no linker)	0.31	10	–
N{Epsilon-B26}-[(4S)-4-carboxy-4-(17-carboxyheptadecanoylamino)butanoyl]-[TyrB5,LysB26],des-(B27-B30)-Insulin (ligand; Lys B26: N-epsilon acylated with C18 diacid-gGlu)	0.33	6	–
[TyrB5,AlaB26],des-ThrB30-Insulin (ligand)	0.85	132	–
N{Epsilon-B28}-[(4S)-4-carboxy-4-(17-carboxyheptadecanoylamino)butanoyl]-[TyrB5,LysB28],des-(B29-B30)-Insulin (ligand; Lys B28: N-epsilon acylated with C18 diacid-gGlu)	0.37	19	–
N{Epsilon-B29}-tetradecanoyl-[TyrB5],des-ThrB30-Insulin (ligand; Lys B29: N-epsilon acylated with C14 (tetradecanoyl), no linker)	0.66	40	–
Insulin degludec (ligand)	0.97	87	20
N{Epsilon-B29}-[(4S)-4-carboxy-4-(17-carboxyheptadecanoylamino)butanoyl]-[TyrB5,AlaB26],des-ThrB30-Insulin (ligand; Lys B29: N-epsilon acylated with C18 diacid-gGlu)	0.29	6	–
Insulin lispro (ligand)	–	104	–
[TyrB5,GlyB26],des-ThrB30-Insulin (ligand)	0.82	93	–
N{Epsilon-B28}-[2-[2-[2-[[(4S)-4-carboxy-4-(17-carboxyheptadecanoylamino)butanoyl]amino]ethoxy]ethoxy]acetyl]-[TyrB5,GlyB26,LysB28],des-(B29-B30)-Insulin (ligand; Lys B28: N-epsilon acylated with C18 diacid-gGlu-OEG)	0.34	7	–

Substance	% maxERK/% maxAKT [1]	Elisa hIR pY1158 max (% of human insulin) (% of human insulin) [1]	hIR binding IC50 (% of human insulin) (% of human insulin) [2]
N{Epsilon-B28}-[(4S)-4-carboxy-4-[[(4S)-4-carboxy-4-(17-carboxyheptadecanoylamino)butanoyl]amino]butanoyl]-[TyrB5,LysB28],des-(B29-B30)-Insulin (ligand; Lys B28: N-epsilon acylated with C18 diacid-2xgGlu)	0.45	36	–
Insulin glargine (ligand)	0.85	104	79
N{Epsilon-B28}-15-carboxypentadecanoyl-[TyrB5,LysB28],des-(B29-B30)-Insulin (ligand; Lys B28: N-epsilon acylated with C16 diacid, no linker)	0.38	32	–
N{Epsilon-B28}-[(4R)-4-[(3R,10S,13R,17R)-3-hydroxy-10,13-dimethyl-2,3,4,5,6,7,8,9,11,12,14,15,16,17-tetradecahydro-1H-cyclopenta[a]phenanthren-17-yl]pentanoyl]-[TyrB5,LysB28],des-(B29-B30)-Insulin (ligand; Lys B28: N-epsilon acylated with lithocholic acid, no linker)	0.29	14	–
[TyrB5,LysB28],des-(B29-B30)-Insulin (ligand)	0.84	93	–
N{Epsilon-B26}-17-carboxyheptadecanoyl-[TyrB5,LysB26],des-(B27-B30)-Insulin (ligand; Lys B26: N-epsilon acylated with C18 diacid, no linker)	–	2	–
N{Epsilon-B28}-[2-[2-[2-[[(4S)-4-carboxy-4-(17-carboxyheptadecanoylamino)butanoyl]amino]ethoxy]ethoxy]acetyl]-[TyrB5,AlaB26,LysB28],des-(B29-B30)-Insulin (ligand; Lys B28: N-epsilon acylated with C18 diacid-gGlu-OEG)	0.2	6	–
N{Epsilon-B28}-[(4S)-4-carboxy-4-(15-carboxypentadecanoylamino)butanoyl]-[TyrB5,LysB28],des-(B29-B30)-Insulin (ligand; Lys B28: N-epsilon acylated with C16 diacid-gGlu)	0.47	43	–
N{Epsilon-B28}-[2-[2-[2-[[(4S)-4-carboxy-4-(17-carboxyheptadecanoylamino)butanoyl]amino]ethoxy]ethoxy]acetyl]-[TyrB5,LysB28],des-(B29-B30)-Insulin (ligand; Lys B28: N-epsilon acylated with C18 diacid-gGlu-OEG)	0.61	39	–
N{Epsilon-B28}-17-carboxyheptadecanoyl-[TyrB5,LysB28],des-(B29-B30)-Insulin (ligand; Lys B28: N-epsilon acylated with C18 diacid, no linker)	0.35	17	–
N{Epsilon-B28}-[(4S)-4-carboxy-4-[[(4R)-4-[(3R,10S,13R,17R)-3-hydroxy-10,13-dimethyl-2,3,4,5,6,7,8,9,11,12,14,15,16,17-tetradecahydro-1H-cyclopenta[a]phenanthren-17-yl]pentanoyl]amino]butanoyl]-[TyrB5,LysB28],des-(B29-B30)-Insulin (ligand; Lys B28: N-epsilon acylated with lithocholic acid-gGlu)	0.32	25	–
N{Epsilon-B26}-[2-[2-[2-[[(4S)-4-carboxy-4-(17-carboxyheptadecanoylamino)butanoyl]amino]ethoxy]ethoxy]acetyl]-[TyrB5,LysB26],des-(B27-B30)-Insulin (ligand; Lys B26: N-epsilon acylated with C18 diacid-gGlu-OEG)	0.27	20	–
N{Epsilon-B28}-15-carboxypentadecanoyl-[TyrB5,GlyB26,LysB28],des-(B29-B30)-Insulin (ligand; Lys B28: N-epsilon acylated with C16 diacid, no linker)	0.27	10	–
N{Epsilon-B28}-[2-[2-[2-(17-carboxyheptadecanoylamino)ethoxy]ethoxy]acetyl]-[TyrB5,LysB28],des-(B29-B30)-Insulin (ligand; Lys B28: N-epsilon acylated with C18 diacid-OEG)	0.48	31	–
Insulin aspart (ligand)	0.79	95	–
